Laboratory results reported in the DeepSol protein solubility set.

Assay: soluble on expression in E. coli; label from the status in PepcDB or PDB records

Row | Sequence | soluble on expression in E. coli
1 | SKGIKSEEVKINNIAIEINKATKRDPGNCNLDNHIKPSPDSSLDNQMKLSCESAPDQNFSICSASEVETNPLENTAAASTLLSQAKIDEDRTFPGSAPNQQHSVLSDEASINRKNRDVPPNHSQLKHDSHLEITIPKSLKLKDSEKVDEKQLVIDAGHKRFGAVSCNICGMLYTASNPEDETQHLLFHNQFISAVKYVVLLINHHECGSEEEFITSLFLSMSNFRYTQRSLLPY | soluble
2 | MEKNGYIDPYTTVMNYLSITPGKWEIKYNENIRGISGKEHRFDAVYRSQEGEIVTVMVVLRTEDLEKRLDDFKNGSKDVRAKRKFLIVCGEINSDMVSELKSENISILMLPGMFCSQVSSYNADAGSNDAPRSLPDGGIEESQRKRSRANIIMDLIRAINENSNQIPVTRLFYACNINHRMGRSIIEDLEHAGIVILRKTGPNRNVVELTRKGISLINDYEFIREILEK | not soluble
3 | MASLPILTVLEQSQVSPPPDTLGDKSLQLTFFDFFWLRSPPINNLFFYELPITRSQFTETVVPNIKHSLSITLKHFYPFVGKLVVYPAPTKKPEICYVEGDSVAVTFAECNLDLNELTGNHPRNCDKFYDLVPILGESTRLSDCIKIPLFSVQVTLFPNQGIAIGITNHHCLGDASTRFCFLKAWTSIARSGNNDESFLANGTRPLYDRIIKYPMLDEAYLKRAKVESFNEDYVTQSLAGPSDKLRATFILTRAVINQLKDRVLAQLPTLEYVSSFTVACAYIWSCIAKSRNDKLQLFGFPIDRRARMKPPIPTAYFGNCVGGCAAIAKTNLLIGKEGFITAAKLIGENLHKTLTDYKDGVLKDDMESFNDLVSEGMPTTMTWVSGTPKLRFYDMDFGWGKPKKLETVSIDHNGAISINSCKESNEDLEIGVCISATQMEDFVHIFDDGLKAYL | soluble
4 | VSKAVQYMAKRRIGALIVFEKETGLQDYIETGIPMNSDISQELLTNVFIPNTPLHDGAMIIQGSKIAVAASYLPLSDSVKISKSLGTRHRAAVGISEVSDAFTVVVSEETGDISVTFDGKLRRDISKDVFEELLAEHWFGAHFQKKGVNS | not soluble
5 | MESPSALPSLDQLLKEQGADQTLTDLILAILDRCGKIASALQGTSVDKVGSVNEFGDEQLTVDVIAENLLRSWAQSSEGSAVRAVCSEEDIHLQECHKNGEFILCWDPLDGSSIIDCNWAVGSIVSIWRIGHHGVQWQGADTLIQKTGRQQVASLIVVYGPRTTGVVAVNVDAGGIVKEGTALDLEMKDNGKFICRGKPIIKPQAKIFSPANLRAAQDLPAYKQLIEFWMEKRYTLRYTGGLVPDVYQIFVKQQGVFCNPASKAAPAKLRMCFEVLAIALVVEAAGGRTSNGQKSLLDVAIEHMDHRSALCCGSADEIKRMEETFAALSG | soluble
6 | MGHHHHHHSHLEDFFKNMVKSADGVIVSGVKDVDDFFEHERTFLLEYHNRVKDASAKSDRMTRSHKSAADDYNRIGSSLYALGTQDSTDICKFFLKVSELFDKTRKIEARVSADEDLKLSDLLKYYLRESQAAKDLLYRRSRSLVDYENANKALDKARAKNKDVLQAETSQQLCCQKFEKISESAKQELIDFKTRRVAAFRKNLVELAELELKHAKGNLQLLQNCLAVLNGDT | not soluble
7 | MWDVKDIEQLSFARGLAIDETNDHQYKLTYQNLLPQSEDSQASGKPEFVNVTSHGKTILEAVSDVSIKDPPVYSDHLKVILLGEKLMRNQNVDQVLNHFIRDDELRRSSYLMAARGNAADVFTKGNPNQQQPMPSEKLIDLTTHSGYNGKIMIPLRIGRASVYSQNGYSYLIQAVKNEKGKAKYDGAGIIKRGSNKLVGFLSADETQTLSWVMGTIQGGVMPTTDKGHPITFEIKKSKTKIKPVIENGKPVFHISVKTKGILTEDQNPNENSFSKSYLHRLENIFEKKLERDVKQVMDKLQHEYKTDPVFLSDHIRIQHPDYWNKVKGHWDEIFSETDFKYDISFKIINFGTVGKLEHHHHHH | soluble
8 | SSSISELYDVTWEEMRDKLRKWREENYRNSEQIVDVGEELINEHASKLGDDIWIIYEQVMIAALDCSRDDLAWSCLQELKRQFPDSHRVKRLAGMRLEALERYDDANKLYDSILQDDPTNTAARKRKICILRAQGKSSEAIRELNEYLEQFVGDQEAWHELSELYINEHDYAKAAFCLEELMMTNPHNHLYCEQYAEVKYTQGGLENLELARKYFAQALKLNNRNMRALFGLYMSASHIAASPKVSAKVKKDNVKYAAWAAAQISRAYQMAGRGKKENKCSVKAVEEMLESLQITMS | soluble
9 | YDQSSVLIVGDVMLDRYWGGPTSRISPEAPVPVVKVEKIEERPGGAANVAMNIAALGGDAHLVGLVGEDEPAQALTTTLESLKVHCDFVALPEFPTITKLRVMSRGQQLIRLDFEDSFHDVAAEPIISRMQQALSSVKAVVLSDYAKGALEHVQLMIQEARKVNVPVFIDPKGADFERYRGATLLTPNMLEFETVVGKVKDEDDLVAKGQQIIEEFDFEALLVTRSEHGMTLLRRNMEPLHLPTQAREVFDVTGAGDTVISVLAASVSTGKPLDEACALANAAAGVVVGKLGTSTLSTIELAEAIHG | not soluble
10 | MRFIHALLLAGIAHSAYASEKLTFKTDLEKLEREKAAQIGVAIVDPQGEIVAGHRMAQRFAMCSTFKFPLAALVFERIDSGTERGDRKLSYGPDMIVEWSPATERFLASGHMTVLEAAQAAVQLSDNGATNLLLREIGGPAAMTQYFRKIGDSVSRLDRKEPEMGDNTPGDLRDTTTPIAMARTVAKVLYGGALTSTSTHTIERWLIGNQTGDATLRAGFPKDWVVGEKTGTCANGGRNDIGFFKAQERDYAVAVYTTAPKLSAVERDELVASVGQVITQLILSTDK | soluble
11 | MTSVNKKRNARKNQEPTSNMTIETEDGTQADRPKKRPAKKRSKVVRRAAQYGDVNEPILRDFVKATIQTGVKQLSTEFLNLKMETQPCNKPKTGHEGHPEKNRYKDVYCIDDTRVVLKWPEDSPSDYIHANWVKINGANKFICTQGPTEKTVDDFYRLIWQEKAPCVVMLCNIMECGKKKCEQYWPETADGQMILMDGKLTVKIAEPAKEVEQNILLMKITVIDDKGTSHNFEHWQWKAWPDRGVPELPMALKTASPIVVHCSAGIGRTGSIVGLEIALVKFCAGEKVVLKDIVKEIRNQRHGSVQTDAQYLFMHRVLLALAENRKITSPELSAFVAEYDKVIATKNG | not soluble
12 | MGSDKIHHHHHHLIPKIIHYCWFGNSELPDIVKDCISSWKKYCPEYEIKRWDESNYDVSKNAYTRAAYKNKKWAFLTDYVRLDVLYNEGGVYMDTDVKLIRSLDPLIDKGPFMSFEKRGRVNTGVGFACEAGNPIVKENKDYYENNLFVDENGNFEPEICVKITTKILIKHGLNYTENVVQKVDGLIVYSSDYFSPKKLGTEKITLTSNTYGIHLFASSWYKGSKIYKKMKYHLIPLKEFIKYKILSKKLYE | not soluble
13 | MAGDPMKVAFITLGCRVNSYESEAMAEKFIKSGWEIVDNDEKADAYVINTCTVTNMGDRKSRQMISRARKANKDAVIAAVGCYSQVEPEKVAEIEGVDIVLGTKNKGDIIHYVNKFIEERNQIVNVKDVFTDKKFEDLNIDEYQDKTRAFLKIQDGCNRFCSYCLIPYARGGVCSKNPEKVIGEIKRLAEHGFKEIILSGIHIASYGDDLKGDWNLISIIEKAEQIDGIERIRIGSIEPRFFDEDTISKIKNMKKMCPHFHLSLQSGCTETLERMNRKYTAEEYKEIVYKLRENISDVSITTDVIVGFPGETDEEFEKTYDFLKEIELAKMHVFKYSPREGTKAAAMKNQINGNVKDKRSAELIELDKINEKKFMSKFLDREMDVLFEKKLEENEDLYEGYTPNYIKVVVKSSEDISRKILKVKLTEIQDEHLLGELILYKLEHHHHHH | soluble
14 | MEQPLMPPAPPSYVASQSQAITTQPGASIPMPPGTIVIEALPPVEGIPGGLEYLAYLDTIMVHQFLEPIEIRTGWETKNKYAIKKICYQKRQCCGAERAFVMHIVDNFNKEVLTVKRERHCCGCCCWLGSTNKSTIESPSMGLLGTVLLGHGCTNSHCNVLDKDEELLFLVDGQGCCTYCCCDDKAFTIKTPDTYKRIGAITKKWGGIIREAYTDADTFAVTFPADLDVKAKALLLATTILQSLRVVVEVEKLEIEIFICCALFMK | not soluble
15 | MPLENVMTDLKASSLRALKLMDLTTLNDDDTNEKVIALCHQAKTPVGNTAAICIYPRFIPIARKTLKEQGTPDIRIATVTNFPHGNDDIDIALAETRAAIAYGADEVDVVFPYRALIAGNEQVGFDLVKACKDACAAANVLLKVIIETGELKEEALIRKASEISIKAGADFIKTSTGKVPVNATPESARIMMEVIRDMGVSKTVGFKPAGGVRTAEDAQKFLAIADELFGADWADSRHYRFGASSLLASLLKALGHGDGKSASSY | not soluble
16 | MDIARPSCYETVRNDDDKKSSDADIYNTSVKLEDPSAPSHDEQWTYNFFITPLNLNISPTDFKIPNDKSVKYTVKCEAKIKQDLIVQVHSLFFEIVGARCKRGVTSQEFHILSENETMTFEVGMKDLNNVSYENYQAANLLSPAGFITFTHFKSLRKDDASWGVKDPKKLMKVVTKGDGGRYNLEKLLVETETDSIKKISEDFAMILQQGMDDKRTKEQEMKMGNMEMFATEEYVEKWKKDKKAIEIAQKNQREWNDKKLEKPGMQKKKEKKCNIM | not soluble
17 | MSLKRLIMATMVTAILASSTVWAADNAPVAAQQQTQQVQQTQKTAAAAERISEQGLYAMRDVQVARLALFHGDPEKAKELTNEASALLSDDSTEWAKFAKPGKKTNLNDDQYIVINASVGISESYVATPEKEAAIKIANEKMAKGDKKGAMEELRLAGVGVMENQYLMPLKQTRNALADAQKLLDKKQYYEANLALKGAEDGIIVDSEALFVNEGHHHHHH | soluble
18 | MISLTQQVSAVRLDTHKSDTFEQNDLVLDNTGAVLSGSRDALIRRLVPTRDFCPDESYIFSLLVNIRTFISPHELMQKIVQYCMFAQNADSHNFAKEGRGRMFAHILRLCSEWATNIPYDFKTEYMRTRLNELLRLCAVDKTYQQKTTELQSTLRSSLNKLDRYEKAVANLQKALSENTNLPEQSDSMTGLFVLCNDAKTVAQQLTHIEMERFSMVGVDEIVQSLASDPLSEIGRHSKNKEGTISSISFYIEWFNRLSAFAAIEVLKQTKKRNRVAVFEFMIDIAKECCEIGNFNSMMAIVAGLSLPAVSRLKKTWCRVEKAKLEILQHQLDPSGNFLSYRATIKAAQWRADSARGNQQKIVIPFFVLLLKDLFLIYHGHPRILPNAHLNFMAFNQLAEQLRDVIQWKSTVCTFEKNPQVLQYLLITSVSGEKDSMLMSFECEPPESSSERDQHKKLKGGK | not soluble
19 | MVYFAYGSNLCLEQMKKRCPEAIPMISVHLDDYKLVYNKYADIIPCEGEKVYGAIYEISLNDLKNLDKYEEYSDLYEKIDLIVQDINGISYEAFAYVMNEKGDKTPDKRYLDIINKGYEDWGIIY | not soluble
20 | MWERSLRDTMRGRTSTLKVAILCFEKDRPKLEALKEILGRSYEVEFVDYSKDVWDDVLQYDCIVAYLASGIVVRGICGRLRGKWKDPAVIVLDKPLKHAVVMLGGHHGGNEVAKKLEEAGLKAVITTAMEFTEGYSVGVGFRKNATADEILEAIAMALEEVGGRMEEIRVISTVDAKRDSAIVEVANRLKRPLIFVRAEEINSMDIRETKAVKIGVKNVAEACAIYASNSGELILPKRVYGGVTVAIAW | not soluble
21 | MGSDKIHHHHHHMIQMFINLLETIPSLGRHSFQVAFLSAQIAEKMNLDPNVSFLSGLIHDLGLILPYEGKTLLDEIDDTFVIVRDTPGKPLHLHSILGSFITDYVEKLKPISPIVLKHHFPASYLDKTEENLISNIVFISDQVSRYTMINLDVSPRDILIALEDMKSFFFPEVFEACREVLNTEFVQWQLENILAGYDVTDLLDHHVRNCPDCDKKDLIQIGKIVSFIVDTKSEFTTSHTWRVAVFSEKMAEKAGRNSEDLFIAGLYHDIGKISVSYKILEKPAKLSDEEYAIMKKHVYFSYLILLPYKDENWFLPAVRHHERLDGYGYPFRLKGEEMTLEDKIIQVADVFSALLEERPYRPANTVEKALSMVREEVKKKKLSQEAFELLESSLEDFDLSSIEVGREIRKEIRTFVNRVVEKFGDYVL | not soluble
